Assay results published in patent US20060272037A1.

Molecular target: Alpha2a adrenergic receptor-cam "chameleon" (mouse)
Assay: cell-based or functional assay

Kd of the agonist [^3H]UK14304 on membranes containing α2AAR-cam after addition of purified Go: 3.4 nM
Kd of the agonist [^3H]UK14304 on the same membranes with Go after addition of GTPγS: 9.6 nM
reduction by GTPγS of the FRET signal caused by 5 nM UK14304 in the presence of Go: > 50%
reduction by GTPγS of the binding of 5 nM [^3H]UK14304 in the presence of Go: > 50%
Substance: purified Go protein
